The test system of one data set is T1, Dbp1-NOX.
T1 construct: single fusion chain: Dbp1 LCD (1-155) at N-terminus of NOX; E. coli, heat shock and IMAC; dimer 79 kDa; forms condensates/nanoclusters at low salt; with ATP-dependent RNA helicase DBP1 (Saccharomyces cerevisiae)
As to the kind of experiment: NADH absorbance decrease at […] nm, Michaelis-Menten fit. The settings on record: 1 µM enzyme, two-phase micron-sized condensates (apparent, average of dilute and dense phase); 100 µM FAD, O2; 25 mM Tris, 20 mM NaCl, pH 7.5; NADH 50-200 µM. It is filed as biochemical, Thermus thermophilus.

For data set [1], the target named is Dbp1-NOX (LCD of Dbp1 from Saccharomyces cerevisiae, residues 1 to 155, fused to the N-terminus of NADH oxidase from Thermus thermophilus) (Saccharomyces cerevisiae | Thermus thermophilus) (UniProt P24784). As to the kind of experiment: single-molecule mass photometry; 20 nM protein in low ionic strength buffer (20 mM NaCl), 25 °C, measured over 1 min; Refeyn OneMP.

Data set [2] deals with the molecule itself. Described as above.
Substrate in the data set “purified protein”: NC(=O)C1=CN([C@@H]2O[C@H](COP(=O)(O)OP(=O)(O)OC[C@H]3O[C@@H](n4cnc5c(N)ncnc54)[C@H](O)[C@@H]3O)[C@@H](O)[C@H]2O)C=CC1
As to the kind of experiment: purified protein. It is filed as biochemical, Thermus thermophilus. The settings on record: 1 µM enzyme, homogeneous, 100 µM FAD, O2, 25 mM Tris, 20 mM NaCl, pH 7.5, NADH 50-200 µM.

We go through three molecules from PMC11026464, “Local environment in biomolecular condensates modulates enzymatic activity across length scales” (Nature Communications, 2024).

`NC(=O)C1=CN([C@@H]2O[C@H](COP(=O)(O)OP(=O)(O)OC[C@H]3O[C@@H](n4cnc5c(N)ncnc54)[C@H](O)[C@@H]3O)[C@@H](O)[C@H]2O)C=CC1` [NADH]: the Km in the data set with Dbp1-NOX is 89 ± 34 µM. In turn, “Dbp1-NOX (LCD of Dbp1 from Saccharomyces cerevisiae, residues 1 to 155, fused to the N-terminus of NADH oxidase from Thermus thermophilus) (from UniProt P24784 1-155) (enzyme)” yielded a stoichiometry N in data set [1] of 2.

B1: NADH oxidase from Thermus thermophilus (NOX) (enzyme)
chain: MEATLPVLDAKTAALKRRSIRRYRKDPVPEGLLREILEAALRAPSAWNLQPWRIVVVRDPATKRALREAAFGQAHVEEAPVVLVLYADLEDALAHLDEVIHPGVQGERREAQKQAIQRAFAAMGQEARKAWASGQSYILLGYLLLLLEAYGLGSVPMLGFDPERVRAILGLPSHAAIPALVALGYPAEEGYPSHRLPLERVVLWR
notes: NADH oxidase (NOX) from Thermus thermophilus; codon-optimised gene cloned into pET-15b; Purified by heat shock only, so it is not clear whether a His tag is on this protein; The dimer peak in mass photometry is printed as 45 kDa; also called unconjugated NOX; source: E. coli BL21-GOLD (DE3), purified (heat shock method)
Turning to B1, the “stoichiometry N” value in data set [2] turned out to be 2. For the same molecule, in “purified protein”, the Km amounted to 81 ± 36 µM and the kcat came out at 1.12 ± 0.21 s⁻¹.
